# Molecular target: otub1_human OTUB1 (UniProt Q96FW1)
# Sequence (Q96FW1 whole entry): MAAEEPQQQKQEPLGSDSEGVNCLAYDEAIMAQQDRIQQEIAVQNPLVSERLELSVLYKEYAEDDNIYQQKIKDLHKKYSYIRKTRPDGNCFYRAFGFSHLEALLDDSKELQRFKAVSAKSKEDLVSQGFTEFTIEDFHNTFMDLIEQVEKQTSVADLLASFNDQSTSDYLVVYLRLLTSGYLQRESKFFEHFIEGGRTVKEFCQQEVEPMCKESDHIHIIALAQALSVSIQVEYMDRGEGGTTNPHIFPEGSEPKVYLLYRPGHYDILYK
# Ubiquitin-conjugating enzyme E2 D1 (Homo sapiens), P51668 D87A, sequence (P51668 whole entry D87A): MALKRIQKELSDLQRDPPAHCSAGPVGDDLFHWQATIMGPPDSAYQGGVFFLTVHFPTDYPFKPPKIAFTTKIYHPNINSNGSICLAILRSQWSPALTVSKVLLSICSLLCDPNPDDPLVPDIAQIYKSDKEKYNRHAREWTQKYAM
substance,measurement,value
"Ubiquitin-conjugating enzyme E2 D1 (Homo sapiens), P51668 D87A",effect of a mutation on the interaction,disrupting interaction
